The record followed here is patent US20090044296A1 (CORNELL RESEARCH FOUNDATION, published 2009).

To fix the notation:
B1: AtHIPM, 52 amino acid fragment orthologous to the original HIPM prey clone (other)
chain: NDKWSMRILWGCAIGSAIGLYMVAVERQTQNRARAMAESLRAAESQGDGDNV
B2: HIPM (HrpN-interacting protein from Malus), original yeast two-hybrid clone with the 53 C-terminal amino acids (other)
chain: GDRWSMRILWACAIGSAVSLYMVAVDRQLKNRERALAEELKAMEAESGSGEIV
notes: Residues 8-60 are worked out from that; also called pB42AD-HIPM; pAD-HIPM
B3: HrpN (harpin) of Erwinia amylovora, full-length, yeast two-hybrid construct (other)
chain: MSLNTSGLGASTMQISIGGAGGNNGLLGTSRQNAGLGGNSALGLGGGNQNDTVNQLAGLLTGMMMMMSMMGGGGLMGGGLGGGLGNGLGGSGGLGEGLSNALNDMLGGSLNTLGSKGGNNTTSTTNSPLDQALGINSTSQNDDSTSGTDSTSDSSDPMQQLLKMFSEIMQSLFGDGQDGTQGSSSGGKQPTEGEQNAYKKGVTDALSGLMGNGLSQLLGNGGLGGGQGGNAGTGLDGSSLGGKGLQNLSGPVDYQQLGNAVGTGIGMKAGIQALNDIGTHSDSSTRSFVNKGDRAMAKEIGQFMDQYPEVFGKPQYQKGPGQEVKTDDKSWAKALSKPDDDGMTPASMEQFNKAKGMIKSAMAGDTGNGNLQARGAGGSSLGIDAMMAGDAINNMALGKLGAA
notes: also called pGilda-hrpN; full-length HrpN protein

Data set [1] deals with AtHIPM, endogenous protein in Arabidopsis thaliana ecotype Columbia plants (Arabidopsis thaliana). The data set can be described thus: cell-based or functional assay.
Data set [2] concerns the target B3. Kind of data set: yeast two-hybrid (LexA system), growth with or without leucine.
Data set [3] deals with the molecule itself. The data set can be described thus: yeast two-hybrid (LexA system), self-interaction.
Data set [4] addresses T1, HrpN-4, truncated derivative of HrpN spanning residues 1-198 (Erwinia amylovora, UniProt Q01099 1-198).
T1 construct: Cloned in pGilda (LexA fusion, bait)
T1 sequence (looked up): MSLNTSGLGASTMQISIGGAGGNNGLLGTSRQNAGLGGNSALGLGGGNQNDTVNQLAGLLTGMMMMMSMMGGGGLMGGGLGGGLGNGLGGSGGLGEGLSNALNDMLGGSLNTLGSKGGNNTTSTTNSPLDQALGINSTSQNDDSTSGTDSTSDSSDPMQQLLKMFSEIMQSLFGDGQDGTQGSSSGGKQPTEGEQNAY
The data set can be described thus: yeast two-hybrid, HrpN deletions in pGilda against pB42AD-HIPM.
Text: Transformants were selected on minimal synthetic dropout (“SD”) medium containing glucose but lacking histidine and tryptophan (“SD/glu-HT”). To identify yeast transformants with positive interaction, the transformants were screened on SD medium with galactose but without histidine, tryptophan, and leucine (“SD/gal-HTL”). Yeast colonies with positive interaction grow in this medium. A yeast strain transformed with p53 as bait and large antigen T as prey was used as a positive control. […] Yeast cell cultures were grown overnight in the SD/glu-HT medium. The cells then were washed once with water and resuspended in water. 10 μl of yeast cell suspension (OD₆₀₀=0.2) was dropped on SD/gal-HTL plates. As a control, the same yeast suspension was dropped on SD/gal-HT plates with leucine.

For data set [5], the target named is B3. The data set can be described thus: yeast two-hybrid (LexA system), HrpN bait, apple cDNA prey clone.
In a further data set the target is T2, LexA-lamin (UniProt P02545 66-230).
T2 construct: not shown: LexA part of the fusion
T2 sequence: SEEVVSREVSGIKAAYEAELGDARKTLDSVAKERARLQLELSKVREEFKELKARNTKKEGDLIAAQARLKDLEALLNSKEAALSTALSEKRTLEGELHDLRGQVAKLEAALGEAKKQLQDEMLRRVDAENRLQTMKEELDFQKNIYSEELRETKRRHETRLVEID
Kind of data set: yeast two-hybrid (LexA system), growth without leucine.

As to “HrpN as applied to plants (Messenger, Eden Bioscience; 15 ug/ml of HrpN) (from UniProt Q01099 1-403)”, in data set [1], the decrease in root growth of the AtHIPM T-DNA mutant line (few AtHIPM transcripts) after treatment with 15 ug/ml of HrpN is 6%, the root growth of the wild-type 10 days after treatment with 15 ug/ml of HrpN was determined as 9% and the top growth of the wild-type plants one week after spraying with 15 ug/ml of HrpN was 10%.

For B1, the binding result was “binds” in data set [2] and “no binding” in data set [3].

Regarding B2, the binding result in data set [4] is given as “binds”; in data set [3], “no binding”; in data set [5] it was “binds”; with LexA-lamin, “no binding”.

In the case of B3, the binding result in data set [3] is reported as “binds”.
